41 molecules from paper PMC8324831, “A synthetic nanobody targeting RBD protects hamsters from SARS-CoV-2 infection” (Nature Communications, 2021) can be followed below.

Where a chain is given by its changes, count along the chain named.

The target in the test is SARS-CoV-2 S-RBD with Avi-tag and deca-His tag (residues 330-531) (SARS-CoV-2, UniProt P0DTC2, biotin on the Avi tag (BirA) where immobilised on streptavidin sensors or used in ELISA and FSEC).

B1: SR35 (VHH)
VHH: QVQLVESGGGLVQAGGSLRLSCAASGFPVKHQTMEWYRQAPGKEREWVAAIMSKGRKTEYADSVKGRFTISRDNAKNTVYLQMNSLKPEDTAVYHCHVYVGATYFGQGTQVTVS
Turning to B1, the binding result was “binds”.

B2: SR6 (VHH)
VHH: QVQLVESGGGLVQAGGSLRLSCAASGFPVGQQEMTWYRQAPGKEREWVAAILSEGNGTEYADSVKGRFTISRDNAKNTVYLQMNSLKPEDTAVYYCAVYVGATYIGQGTQVTVS
With B2, the binding result is “binds”.

B3: SR38 (VHH)
VHH: B2 VHH with G30N, Q32E, T35E, L52K, E54W, N56T, G57L, E59A, Y99H, A102Q
For B3, the binding result is reported as “binds”.

B4: SR10 (VHH)
VHH: B2 VHH with G30N, Q31K, Q32R, L52T, N56R, G57S, A97Y, Y99F, A102S, T103S
Consider B4, for which the binding result is “binds”.

B5: SR42 (VHH)
VHH: B2 VHH with G30Q, Q32R, L52M, E54K, N56V, G57H, A97H, T103S, I105F
On to B5, for which the binding result is listed as “binds”.

B6: SR1 (VHH)
VHH: QVQLVESGGGLVQAGGSLRLSCAASGFPVAAYEMEWYRQAPGKEREWVAAINSMGDQTYYADSVKGRFTISRDNAKNTVYLQMNSLKPEDTAVYYCYVYVGFSYIGQGTQVTVS
With B6, the binding result is “binds”.

B7: SR15 (VHH)
VHH: B6 VHH with A30K, A31H, Y32A, N52S, M54N, D56S, Q57E, Y99W, F102Q
On to B7, for which the binding result was “binds”.

B8: SR17 (VHH)
VHH: B6 VHH with A30E, A31G, Y32S, N52E, M54N, D56T, Q57H, Y59H, F102A, S103G
Consider B8, for which the binding result is on record as “binds”.

B9: SR18 (VHH)
VHH: B6 VHH with A30W, A31F, Y32Q, N52S, M54Q, D56T, Q57H, F102A, I105L
In the case of B9, the binding result is “binds”.

B10: SR40 (VHH)
VHH: B6 VHH with A30D, A31S, Y32Q, N52S, M54N, D56K, Q57S, F102L
Take B10: the binding result is listed as “binds”.

B11: SR29 (VHH)
VHH: B2 VHH with G30S, Q32R, L52E, N56E, G57Q, A97Y, A102R, T103S
Consider B11, for which the binding result is listed as “binds”.

B12: SR3 (VHH)
VHH: B6 VHH with A30W, A31Q, Y32E, N52T, M54Y, Q57T, Y97V, F102G, S103T
Regarding B12, the binding result is reported as “binds”.

B13: SR19 (VHH)
VHH: B6 VHH with A30N, A31T, Y32M, M54S, D56Q, Q57E, F102Q
In the case of B13, the binding result is on record as “binds”.

B14: SR21 (VHH)
VHH: B6 VHH with A30S, A31K, Y32T, N52A, M54A, D56A, Q57E, F102Q
On to B14, for which the binding result is “binds”.

B15: SR24 (VHH)
VHH: B2 VHH with G30N, Q31A, Q32M, L52M, N56T, G57W, A97Y, T103S
In the case of B15, the binding result is “binds”.

B16: SR41 (VHH)
VHH: B6 VHH with A30G, A31S, Y32T, N52S, M54T, D56H, Q57Y, Y59H, F102G, I105L
Regarding B16, the binding result is on record as “binds”.

B17: SR36 (VHH)
VHH: B6 VHH with A30Y, A31M, Y32E, N52A, M54Y, D56S, Q57E, F102Q
Consider B17, for which the binding result is recorded as “binds”.

B18: SR12 (VHH)
VHH: B6 VHH with A30N, A31M, Y32Q, N52S, M54T, D56W, Q57V, F102A
Take B18: the binding result is given as “binds”.

B19: SR30 (VHH)
VHH: B6 VHH with A30R, A31K, Y32H, N52S, M54K, D56S, Q57N, F102A
As to B19, the binding result is “binds”.

B20: SR11 (VHH)
VHH: B6 VHH with A30Y, A31S, Y32M, N52S, M54W, D56N, Q57E, Y59H, F102A
In the case of B20, the binding result is reported as “binds”.

B21: SR39 (VHH)
VHH: B6 VHH with A30D, Y32S, N52E, M54Q, D56Y, Q57E, F102S
Turning to B21, the binding result is “binds”.

B22: SR37 (VHH)
VHH: B2 VHH with G30S, Q31T, Q32A, L52E, E54Y, G57S, A97Y, A102Y, T103S
As for B22, the binding result is “binds”.

B23: SR13 (VHH)
VHH: B6 VHH with A30D, A31Y, Y32M, Y37F, N52T, M54N, D56R, Q57E, I70V, F102S
With B23, the binding result was “binds”.

B24: SR22 (VHH)
VHH: B6 VHH with A31S, Y32H, N52A, M54S, D56Q, Q57W, F102Q
Turning to B24, the binding result is recorded as “binds”.

B25: SR28 (VHH)
VHH: B6 VHH with A30K, A31M, Y32A, N52Q, M54A, D56R, Q57E, F102A, S103G
As for B25, the binding result was “binds”.

B26: SR20 (VHH)
VHH: B6 VHH with A30T, A31S, N52A, M54W, D56Y, Q57H, F102G
Regarding B26, the binding result is reported as “binds”.

B27: SR8 (VHH)
VHH: B6 VHH with A30Y, A31K, Y32R, E35T, N52S, M54K, D56V, Q57H, Y59E, F102K
Take B27: the binding result was “binds”.

B28: SR16 (VHH)
VHH: B6 VHH with A30K, A31K, E35T, N52T, M54K, D56T, Q57Y, F102Y, I105L
Turning to B28, the binding result was “binds”.

B29: SR33 (VHH)
VHH: B6 VHH with A30G, A31S, Y32N, N52Q, M54S, D56V, Q57F, F102G, I105L
For B29, the binding result is “binds”.

B30: SR2 (VHH)
VHH: B2 VHH with G30K, L52E, E54N, N56H, A97Y, A102Q, T103S
For B30, the binding result was “binds”.

B31: SR23 (VHH)
VHH: B6 VHH with A30Y, A31T, Y32S, N52A, M54T, D56A, Q57E, Y59A, F102R
Take B31: the binding result is “binds”.

B32: SR5 (VHH)
VHH: B6 VHH with S21R, A30E, A31T, Y32T, N52S, M54Y, D56S, Q57E, F102T, I105L
For the molecule B32, the binding result is “binds”.

B33: SR25 (VHH)
VHH: B6 VHH with A30N, A31T, Y32A, E35V, N52Y, M54E, D56P, Q57I, Y59E, F102S
For B33, the binding result was “binds”.

B34: SR9 (VHH)
VHH: B6 VHH with A30I, N52T, M54S, D56T, Q57S, F102Q, I105L
Turning to B34, the binding result is “binds”.

B35: SR26 (VHH)
VHH: B6 VHH with A30N, A31T, Y32R, N52S, M54N, D56H, Q57K, F102R
Turning to B35, the binding result is on record as “binds”.

B36: SR7 (VHH)
VHH: QVQLVESGGGLVQAGGSLRLSCAASGFPVWSNEMEWYRQAPGKEREWVAAITSYGTTEYADSVKGRFTISRDNAKNTVYLQMNSLKPEDTAVYYCYVYVGYSYIGQGTQVTVS
In the case of B36, the binding result is on record as “binds”.

B37: SR27 (VHH)
VHH: QVQLVESGGGLVQAGGSLRLSCAASGFPVWEAEMEWYRQAPGKEREWVAAISSIGTSTAYADSVKGRFTISRDNAKNTVYLQMNSLKPEDTAVYYCIVYVGKTYIGQGTQVTVS
B37: the binding result is “binds”.

B38: SR34 (VHH)
VHH: QVQLVESGGGLVQAGGSLRLSCAAGGFPVKDHEMEWYRQAPGKEREWVAAITSSGWGTNTYYADSVKGRFTISRDNAKNTVYLQMNSLKPEDTAVYYCYVYVGSSYIGQGTQVTVS
As to B38, the binding result was “binds”.

B39: SR31 (VHH)
VHH: QVQLVESGGGLVQAGGSLRLSCAASGFPVWQGEMAWYRQAPGKEREWVAAISSMGYKTYYADSVKGRFTISRDNAKNTVYLQMNSLKPEDTAVYYCAVMVGFWYAGQGTQVTVS
As to B39, the binding result is recorded as “binds”.

B40: SR32 (VHH)
VHH: B39 VHH with W30N, Q31V, G32A, E33K, S52D, M54H, Y56A, K57Q, Y59H, M99H
On to B40, for which the binding result was “binds”.

B41: SR14 (VHH)
VHH: QVQLVESGGGLVQAGGSLRLSCAASGFPVDSEEMTWYRQAPGKEREWVAAITSDGDITEYADSVKGRFTISRDNAKNTVYLQMNSLKPEDTAVYYCYVWVGRSYLGQGTQVTVS
As for B41, the binding result is given as “binds”.
